# Residue numbers refer to the chain shown, from its start.
# B1: GLS3000 S27eD (antibody, name in Kabat numbering, V domains shown)
# VH: QVQLVESGGGVVQPGRSLRLSCAASGFTFSNAWMHWVRQAPGKGLEWVAQIKAKSNNYATYYAESVKGRFTISRDDSKNSLYLQMNSLKTEDTAVYYCRYVHYGAYYGVDAWGQGTTVTVSS
# VL: DIVMTQSPLSLPVTPGEPASISCRSSQSLVHDNRNTYLHWYQQKPGQAPRLLIYKVSNRFSGVPDRFSGSGSGTDFTLKISRVEAEDVGVYYCGQGTQVPYTFGQGTKLEIK
# notes: one-arm format as m2
# B2: GLS3000 S27eI (antibody, name in Kabat numbering, V domains shown)
# VH: B1 VH
# VL: B1 VL with D32I
# notes: one-arm format as m2
# B3: GLS3000 S56I (antibody, name in Kabat numbering, V domains shown)
# VH: B1 VH
# VL: B1 VL with D32S, S61I
# notes: one-arm format as m2
# B4: GLS3000 S52Y (antibody, name in Kabat numbering, V domains shown)
# VH: B1 VH
# VL: B1 VL with D32S, S57Y
# notes: one-arm format as m2
# B5: GLS3000 T31E (antibody, name in Kabat numbering, V domains shown)
# VH: B1 VH
# VL: B1 VL with D32S, T36E
# notes: one-arm format as m2
# B6: GLS3000 S56N (antibody, name in Kabat numbering, V domains shown)
# VH: B1 VH
# VL: B1 VL with D32S, S61N
# notes: one-arm format as m2
# B7: GLS3000 S27eN (antibody, name in Kabat numbering, V domains shown)
# VH: B1 VH
# VL: B1 VL with D32N
# notes: one-arm format as m2
# B8: GLS3000 S56Q (antibody, name in Kabat numbering, V domains shown)
# VH: B1 VH
# VL: B1 VL with D32S, S61Q
# notes: one-arm format as m2
# B9: GLS3000 S56V (antibody, name in Kabat numbering, V domains shown)
# VH: B1 VH
# VL: B1 VL with D32S, S61V
# notes: one-arm format as m2
# B10: GLS3000 S27eY (antibody, name in Kabat numbering, V domains shown)
# VH: B1 VH
# VL: B1 VL with D32Y
# notes: one-arm format as m2
# B11: GLS3000 T31P (antibody, name in Kabat numbering, V domains shown)
# VH: B1 VH
# VL: B1 VL with D32S, T36P
# notes: one-arm format as m2
# B12: GLS3000 S56D (antibody, name in Kabat numbering, V domains shown)
# VH: B1 VH
# VL: B1 VL with D32S, S61D
# notes: one-arm format as m2
# B13: GLS3000 S27eM (antibody, name in Kabat numbering, V domains shown)
# VH: B1 VH
# VL: B1 VL with D32M
# notes: one-arm format as m2
# B14: GLS3000 S56K (antibody, name in Kabat numbering, V domains shown)
# VH: B1 VH
# VL: B1 VL with D32S, S61K
# notes: one-arm format as m2
# B15: GLS3000 T31N (antibody, name in Kabat numbering, V domains shown)
# VH: B1 VH
# VL: B1 VL with D32S, T36N
# notes: one-arm format as m2
# B16: GLS3000 S27eP (antibody, name in Kabat numbering, V domains shown)
# VH: B1 VH
# VL: B1 VL with D32P
# notes: one-arm format as m2
# B17: GLS3000 S27eL (antibody, name in Kabat numbering, V domains shown)
# VH: B1 VH
# VL: B1 VL with D32L
# notes: one-arm format as m2
# B18: GLS3000 S27eF (antibody, name in Kabat numbering, V domains shown)
# VH: B1 VH
# VL: B1 VL with D32F
# notes: one-arm format as m2
# B19: GLS3000 T31K (antibody, name in Kabat numbering, V domains shown)
# VH: B1 VH
# VL: B1 VL with D32S, T36K
# notes: one-arm format as m2
# B20: GLS3000 S27eK (antibody, name in Kabat numbering, V domains shown)
# VH: B1 VH
# VL: B1 VL with D32K
# notes: one-arm format as m2
# B21: GLS3000 S27eH (antibody, name in Kabat numbering, V domains shown)
# VH: B1 VH
# VL: B1 VL with D32H
# notes: one-arm format as m2
# B22: GLS3000 S27eV (antibody, name in Kabat numbering, V domains shown)
# VH: B1 VH
# VL: B1 VL with D32V
# notes: one-arm format as m2
# B23: GLS3000 S27eG (antibody, name in Kabat numbering, V domains shown)
# VH: B1 VH
# VL: B1 VL with D32G
# notes: one-arm format as m2
# B24: GLS3000 S56R (antibody, name in Kabat numbering, V domains shown)
# VH: B1 VH
# VL: B1 VL with D32S, S61R
# notes: one-arm format as m2
# B25: GLS3000 S56E (antibody, name in Kabat numbering, V domains shown)
# VH: B1 VH
# VL: B1 VL with D32S, S61E
# notes: one-arm format as m2
# B26: GLS3000 S27eW (antibody, name in Kabat numbering, V domains shown)
# VH: B1 VH
# VL: B1 VL with D32W
# notes: one-arm format as m2
# B27: GLS3000 S27eQ (antibody, name in Kabat numbering, V domains shown)
# VH: B1 VH
# VL: B1 VL with D32Q
# notes: one-arm format as m2
# B28: GLS3000 S56W (antibody, name in Kabat numbering, V domains shown)
# VH: B1 VH
# VL: B1 VL with D32S, S61W
# notes: one-arm format as m2
# B29: GLS3000 S56T (antibody, name in Kabat numbering, V domains shown)
# VH: B1 VH
# VL: B1 VL with D32S, S61T
# notes: one-arm format as m2
# B30: GLS3000 S52P (antibody, name in Kabat numbering, V domains shown)
# VH: B1 VH
# VL: B1 VL with D32S, S57P
# notes: one-arm format as m2
# B31: GLS3000 S56H (antibody, name in Kabat numbering, V domains shown)
# VH: B1 VH
# VL: B1 VL with D32S, S61H
# notes: one-arm format as m2
# B32: GLS3000 T31I (antibody, name in Kabat numbering, V domains shown)
# VH: B1 VH
# VL: B1 VL with D32S, T36I
# notes: one-arm format as m2
# B33: GLS3000 S56P (antibody, name in Kabat numbering, V domains shown)
# VH: B1 VH
# VL: B1 VL with D32S, S61P
# notes: one-arm format as m2
# B34: GLS3000 T31D (antibody, name in Kabat numbering, V domains shown)
# VH: B1 VH
# VL: B1 VL with D32S, T36D
# notes: one-arm format as m2
# B35: GLS3000 S56F (antibody, name in Kabat numbering, V domains shown)
# VH: B1 VH
# VL: B1 VL with D32S, S61F
# notes: one-arm format as m2
# B36: GLS3000 S56A (antibody, name in Kabat numbering, V domains shown)
# VH: B1 VH
# VL: B1 VL with D32S, S61A
# notes: one-arm format as m2
# B37: GLS3000 S56M (antibody, name in Kabat numbering, V domains shown)
# VH: B1 VH
# VL: B1 VL with D32S, S61M
# notes: one-arm format as m2
# B38: GLS3000 S52Q (antibody, name in Kabat numbering, V domains shown)
# VH: B1 VH
# VL: B1 VL with D32S, S57Q
# notes: one-arm format as m2
# B39: GLS3000 S52D (antibody, name in Kabat numbering, V domains shown)
# VH: B1 VH
# VL: B1 VL with D32S, S57D
# notes: one-arm format as m2
# B40: GLS3000 S56Y (antibody, name in Kabat numbering, V domains shown)
# VH: B1 VH
# VL: B1 VL with D32S, S61Y
# notes: one-arm format as m2
# B41: GLS3000 S56G (antibody, name in Kabat numbering, V domains shown)
# VH: B1 VH
# VL: B1 VL with D32S, S61G
# notes: one-arm format as m2
# B42: GLS3000 S56L (antibody, name in Kabat numbering, V domains shown)
# VH: B1 VH
# VL: B1 VL with D32S, S61L
# notes: one-arm format as m2
# B43: GLS3000 S27eE (antibody, name in Kabat numbering, V domains shown)
# VH: B1 VH
# VL: B1 VL with D32E
# notes: one-arm format as m2
# B44: GLS3000 S52A (antibody, name in Kabat numbering, V domains shown)
# VH: B1 VH
# VL: B1 VL with D32S, S57A
# notes: one-arm format as m2
# B45: GLS3000 S27eR (antibody, name in Kabat numbering, V domains shown)
# VH: B1 VH
# VL: B1 VL with D32R
# notes: one-arm format as m2
# B46: GLS3000 S27eT (antibody, name in Kabat numbering, V domains shown)
# VH: B1 VH
# VL: B1 VL with D32T
# notes: one-arm format as m2
# Target: CD3ε homodimer protein (human, UniProt P07766 23-126, limits assumed)
# Assay: SPR, immobilized CD3ε homodimer;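 note: biacore T200 surface plasmon resonance at 25 °C, antibody variants flowed as analytes over amine-coupled CD3ε homodimer on a CM4 chip, variant binding amount divided by that of GLS3000 antibody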
# Procedure: Each one-amino acid altered form constructed, expressed, and purified in the paragraph (6-2) was evaluated using Biacore T200 (GE Healthcare Japan Corp.). An appropriate amount of CD3ε homodimer protein was immobilized onto Sensor chip CM4 (GE Healthcare Japan Corp.) by the amine coupling method. Then, the antibody having an appropriate concentration was injected thereto as an analyte and allowed to interact with the CD3ε homodimer protein on the sensor chip. Then, the sensor chip was regenerated by the injection of 10 mmol/L glycine-HCl (pH 1.5). The assay was conducted at 25° C., and HBS-EP+ (GE Healthcare Japan Corp.) was used as a running buffer. […] Each parameter was calculated using Biacore T200 Evaluation Software (GE Healthcare Japan Corp.).
# Specifically, when the amount of the GLS3000-containing antibody bound was defined as X and the amount of the L chain one-amino acid altered form bound was defined as Y, a value of Z (ratio of amounts bound)=Y/X was used.
# Chain of CD3ε homodimer protein (P07766 23-126 limits assumed): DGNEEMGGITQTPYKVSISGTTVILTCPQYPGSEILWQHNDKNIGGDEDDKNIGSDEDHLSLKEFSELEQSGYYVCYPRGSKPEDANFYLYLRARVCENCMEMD
row,Binder,ratio of amounts bound (vs GLS3000)
1,B1,0.69
2,B2,1.07
3,B3,0.99
4,B4,1.12
5,B5,0.49
6,B6,0.92
7,B7,1.16
8,B8,1.04
9,B9,0.95
10,B10,1.2
11,B11,0.31
12,B12,0.77
13,B13,1.23
14,B14,1.46
15,B15,0.32
16,B16,1.26
17,B17,1.17
18,B18,1.32
19,B19,1.04
20,B20,1.59
21,B21,1.23
22,B22,1.08
23,B23,1.04

row,Binder,ratio of amounts bound (vs GLS3000)
1,B24,1.36
2,B25,0.71
3,B26,1.55
4,B27,1.1
5,B28,1.38
6,B29,0.97
7,B30,0.33
8,B31,1.05
9,B32,0.97
10,B33,0.95
11,B34,0.23
12,B35,1.32
13,B36,1.16
14,B37,1.05
15,B38,1.05
16,B39,0.63
17,B40,1.46
18,B41,0.92
19,B42,1.02
20,B43,0.76
21,B44,0.93
22,B45,1.58
23,B46,0.97

# From patent US20220040297A1 (Chugai, published 2022)
